We go through one substance from patent publication US9095624.

For the assay, the target named is EGFR receptors of A431 human epidermoid carcinoma cells (human) (UniProt P00533).

A value given as a limit tells only on which side of the number the result lay.

For the substance “DTox-HMP-NLS-EGF after refolding (from UniProt P00588 198-384; P24232 1-396; P01133 971-1023)”, the Ka was determined as 5.4e+13 M⁻¹ and the fold increase of affinity after refolding against before refolding is greater than 2.8 fold.
